# Measured values as given in PMC10843684 (Molecular cell, 2023).
# T1: MAEA (U-box subunit of the CTLH E3 catalytic module) (human, UniProt Q7L5Y9 1-396)
# T1 sequence: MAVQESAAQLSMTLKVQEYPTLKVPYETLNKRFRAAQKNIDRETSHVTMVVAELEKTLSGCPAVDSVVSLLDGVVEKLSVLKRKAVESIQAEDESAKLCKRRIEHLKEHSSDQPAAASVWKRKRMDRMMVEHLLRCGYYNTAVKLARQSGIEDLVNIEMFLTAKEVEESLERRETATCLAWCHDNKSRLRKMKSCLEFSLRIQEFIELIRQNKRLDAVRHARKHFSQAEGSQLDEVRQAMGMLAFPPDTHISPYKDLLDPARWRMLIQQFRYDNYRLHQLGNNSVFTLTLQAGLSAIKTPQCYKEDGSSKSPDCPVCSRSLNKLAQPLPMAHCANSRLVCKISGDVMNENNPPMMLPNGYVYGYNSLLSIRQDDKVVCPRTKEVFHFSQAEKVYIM
# T2: RMND5A (RING subunit of the CTLH E3 catalytic module) (human, UniProt Q9H871 1-391)
# T2 sequence: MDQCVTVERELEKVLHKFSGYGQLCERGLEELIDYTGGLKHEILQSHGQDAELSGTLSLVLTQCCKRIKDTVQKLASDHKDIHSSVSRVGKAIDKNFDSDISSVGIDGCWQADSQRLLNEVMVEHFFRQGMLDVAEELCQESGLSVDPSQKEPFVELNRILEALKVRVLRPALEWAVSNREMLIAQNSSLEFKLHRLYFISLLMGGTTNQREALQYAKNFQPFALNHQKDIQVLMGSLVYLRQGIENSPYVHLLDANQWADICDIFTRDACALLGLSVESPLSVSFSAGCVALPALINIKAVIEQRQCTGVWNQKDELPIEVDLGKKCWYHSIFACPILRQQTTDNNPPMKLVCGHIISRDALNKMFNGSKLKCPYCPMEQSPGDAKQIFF
# B1: Fbp1-6xHis (fructose-1,6-bisphosphatase) (natural protein, S. cerevisiae)
# chain: MPTLVNGPRRDSTEGFDTDIITLPRFIIEHQKQFKNATGDFTLVLNALQFAFKFVSHTIRRAELVNLVGLAGASNFTGDQQKKLDVLGDEIFINAMRASGIIKVLVSEEQEDLIVFPTNTGSYAVCCDPIDGSSNLDAGVSVGTIASIFRLLPDSSGTINDVLRCGKEMVAACYAMYGSSTHLVLTLGDGVDGFTLDTNLGEFILTHPNLRIPPQKAIYSINEGNTLYWNETIRTFIEKVKQPQADNNNKPFSARYVGSMVADVHRTFLYGGLFAYPCDKKSPNGKLRLLYEAFPMAFLMEQAGGKAVNDRGERILDLVPSHIHDKSSIWLGSSGEIDKFLDHIGKSQ
# B2: UBE2H C87K, insect cell-expressed and fully phosphorylated with CK2 (the E2 chain of the UBE2H~ubiquitin mimic) (enzyme, human, UniProt P62256 1-183, looked up)
# chain: MSSPSPGKRRMDTDVVKLIESKHEVTILGGLNEFVVKFYGPQGTPYEGGVWKVRVDLPDKYPFKSPSIGFMNKIFHPNIDEASGTVKLDVINQTWTALYDLTNIFESFLPQLLAYPNPIDPLNGDAAAMYLHRPEEYKQKIKEYIQKYATEEALKEQEEGTGDSSSESSMSDFSEDEAQDMEL
# modifications: phosphoserines 164, 165, 166, 168, 169, 171 and 174; K87 isopeptide-bonded to ubiquitin
# Assays:
# Assay in all cases: cryo-EM structure
# Chelator-GID^SR4 = Chelator-GID^SR4 (S. cerevisiae, UniProt P53076 1-958; P40208 1-455; P40547 1-921; P38263 1-362; Q12508 1-421; P40492 …)
# [1] = target: T1, MAEA (U-box subunit of the CTLH E3 …)
# [2] = target: T2, RMND5A (RING subunit of the CTLH E3 …)
Binder,binding result (Chelator-GID^SR4),binding result [1],binding result [2]
B1,binds,–,–
B2,–,binds,binds
